# In FireProtDB (doi:10.1093/protein/12.8.663):
# “And” between values parts separate entries of the source, which are not always exact repeats. Equal values may be shown once.
# B1: Lysozyme C, P61626 (parent)
# chain: MKALIVLGLVLLSVTVQGKVFERCELARTLKRLGMDGYRGISLANWMCLAKWESGYNTRATNYNAGDRSTDYGIFQINSRYWCNDGKTPGAVNACHLSCSALLQDNIADAVACAKRVVRDPQGIRAWVAWRNRCQNRDVRQYVQGCGV
# Variants of: B1
# Conditions: Homo sapiens; pH 2.53; Thermal; DSC; glycine 0.05 M; reversible: yes; structure 1LZ1; whole UniProt chain shown
Variant,Tm [°C],unfolding enthalpy (calorimetric) [kJ/mol],unfolding enthalpy (van 't Hoff) [kJ/mol]
MKALIVLGLVLLSVTVQGKVFERCELARTLKRLGMDGYRGISLANWMCLAKWESGYNTRATNYNAGDRSTDYGIFQINSRYWCNDGKTPGAVNACGLSCSALLQDNIADAVACAKRVVRDPQGIRAWVAWRNRCQNRDVRQYVQGCGV,61.5,431,452

# Same assay, conditions: Homo sapiens; pH 2.7; 64.9 °C; Thermal; DSC; glycine 0.05 M; reversible: yes; structure 1LZ1; whole UniProt chain shown
row,Variant,ddG of mutation (higher = less stable) [kJ/mol]
1,MKALIVLGLVLLSVTVQGKVFERCELARTLKRLGMDGYRGISLANWMCLAKWESGYNTRATNYNAGDRSTDYGIFQINSRYWCNDGKTPGAVNACGLSCSALLQDNIADAVACAKRVVRDPQGIRAWVAWRNRCQNRDVRQYVQGCGV,0.502
2,MKALIVLGLVLLSVTVQGKVFERCELARTLKRLGMDGYRGISLANWMCLAKWESGYNTRATNYNAGDRSTDYGIFQINSRYWCNDGKTPGAVNACHLSCSALLQDNIADAVACMKRVVRDPQGIRAWVAWRNRCQNRDVRQYVQGCGV,-0.0837
3,MKALIVLGLVLLSVTVQGKVFERCELARTLKRLGMDGYRGISLANWMCLAKWESQYNTRATNYNAGDRSTDYGIFQINSRYWCNDGKTPGAVNACHLSCSALLQDNIADAVACAKRVVRDPQGIRAWVAWRNRCQNRDVRQYVQGCGV,1.09
4,MKALIVLGLVLLSVTVQGKVFERCELARTLKRLGMDGYRGISLANWMCLAKWLSGYNTRATNYNAGDRSTDYGIFQINSRYWCNDGKTPGAVNACHLSCSALLQDNIADAVACAKRVVRDPQGIRAWVAWRNRCQNRDVRQYVQGCGV,2.22

# Same assay, conditions: Homo sapiens; pH 2.7; Thermal; DSC; glycine 0.05 M; reversible: yes; structure 1LZ1; whole UniProt chain shown
Variant,Tm,"change of melting temperature, mutant - wild type (higher = more stable) [°C]",heat capacity change of unfolding [kcal/mol/K],unfolding enthalpy (calorimetric) [kJ/mol]
MKALIVLGLVLLSVTVQGKVFERCELARTLKRLGMDGYRGISLANWMCLAKWESGYNTRATNYNAGDRSTDYGIFQINSRYWCNDGKTPGAVNACGLSCSALLQDNIADAVACAKRVVRDPQGIRAWVAWRNRCQNRDVRQYVQGCGV,64.4 °C and 64.9 °C,-0.5,1.58,455
MKALIVLGLVLLSVTVQGKVFERCELARTLKRLGMDGYRGISLANWMCLAKWESGYNTRATNYNAGDRSTDYGIFQINSRYWCNDGKTPGAVNACHLSCSALLQDNIADAVACMKRVVRDPQGIRAWVAWRNRCQNRDVRQYVQGCGV,65 °C and 64.9 °C,0.1,1.31,413
MKALIVLGLVLLSVTVQGKVFERCELARTLKRLGMDGYRGISLANWMCLAKWESQYNTRATNYNAGDRSTDYGIFQINSRYWCNDGKTPGAVNACHLSCSALLQDNIADAVACAKRVVRDPQGIRAWVAWRNRCQNRDVRQYVQGCGV,64.1 °C and 64.9 °C,-0.8,1.15,450
MKALIVLGLVLLSVTVQGKVFERCELARTLKRLGMDGYRGISLANWMCLAKWLSGYNTRATNYNAGDRSTDYGIFQINSRYWCNDGKTPGAVNACHLSCSALLQDNIADAVACAKRVVRDPQGIRAWVAWRNRCQNRDVRQYVQGCGV,63.1 °C and 64.9 °C,-1.8,1.05,414

# Same assay, conditions: Homo sapiens; pH 2.75; Thermal; DSC; glycine 0.05 M; reversible: yes; structure 1LZ1; whole UniProt chain shown
Variant,Tm [°C],unfolding enthalpy (calorimetric) [kJ/mol],unfolding enthalpy (van 't Hoff) [kJ/mol]
MKALIVLGLVLLSVTVQGKVFERCELARTLKRLGMDGYRGISLANWMCLAKWESGYNTRATNYNAGDRSTDYGIFQINSRYWCNDGKTPGAVNACGLSCSALLQDNIADAVACAKRVVRDPQGIRAWVAWRNRCQNRDVRQYVQGCGV,65.2,460,469

# Same assay, conditions: Homo sapiens; pH 3.1; Thermal; DSC; glycine 0.05 M; reversible: yes; structure 1LZ1; whole UniProt chain shown
Variant,Tm [°C],unfolding enthalpy (calorimetric) [kJ/mol],unfolding enthalpy (van 't Hoff) [kJ/mol]
MKALIVLGLVLLSVTVQGKVFERCELARTLKRLGMDGYRGISLANWMCLAKWESGYNTRATNYNAGDRSTDYGIFQINSRYWCNDGKTPGAVNACGLSCSALLQDNIADAVACAKRVVRDPQGIRAWVAWRNRCQNRDVRQYVQGCGV,71,494,502

# Same assay, conditions: Homo sapiens; pH 2.56; Thermal; DSC; glycine 0.05 M; reversible: yes; structure 1LZ1; whole UniProt chain shown
Variant,Tm [°C],unfolding enthalpy (calorimetric) [kJ/mol],unfolding enthalpy (van 't Hoff) [kJ/mol]
MKALIVLGLVLLSVTVQGKVFERCELARTLKRLGMDGYRGISLANWMCLAKWESGYNTRATNYNAGDRSTDYGIFQINSRYWCNDGKTPGAVNACHLSCSALLQDNIADAVACMKRVVRDPQGIRAWVAWRNRCQNRDVRQYVQGCGV,62.5,398,410
MKALIVLGLVLLSVTVQGKVFERCELARTLKRLGMDGYRGISLANWMCLAKWLSGYNTRATNYNAGDRSTDYGIFQINSRYWCNDGKTPGAVNACHLSCSALLQDNIADAVACAKRVVRDPQGIRAWVAWRNRCQNRDVRQYVQGCGV,61.2,397,439

# Same assay, conditions: Homo sapiens; pH 3.19; Thermal; DSC; glycine 0.05 M; reversible: yes; structure 1LZ1; whole UniProt chain shown
Variant,Tm [°C],unfolding enthalpy (calorimetric) [kJ/mol],unfolding enthalpy (van 't Hoff) [kJ/mol]
MKALIVLGLVLLSVTVQGKVFERCELARTLKRLGMDGYRGISLANWMCLAKWESGYNTRATNYNAGDRSTDYGIFQINSRYWCNDGKTPGAVNACHLSCSALLQDNIADAVACMKRVVRDPQGIRAWVAWRNRCQNRDVRQYVQGCGV,72.9,456,469

# Same assay, conditions: Homo sapiens; pH 2.48; Thermal; DSC; glycine 0.05 M; reversible: yes; structure 1LZ1; whole UniProt chain shown
Variant,Tm [°C],unfolding enthalpy (calorimetric) [kJ/mol],unfolding enthalpy (van 't Hoff) [kJ/mol]
MKALIVLGLVLLSVTVQGKVFERCELARTLKRLGMDGYRGISLANWMCLAKWESQYNTRATNYNAGDRSTDYGIFQINSRYWCNDGKTPGAVNACHLSCSALLQDNIADAVACAKRVVRDPQGIRAWVAWRNRCQNRDVRQYVQGCGV,60.7,427,452

# Same assay, conditions: Homo sapiens; pH 2.73; Thermal; DSC; glycine 0.05 M; reversible: yes; structure 1LZ1; whole UniProt chain shown
Variant,Tm [°C],unfolding enthalpy (calorimetric) [kJ/mol],unfolding enthalpy (van 't Hoff) [kJ/mol]
MKALIVLGLVLLSVTVQGKVFERCELARTLKRLGMDGYRGISLANWMCLAKWESQYNTRATNYNAGDRSTDYGIFQINSRYWCNDGKTPGAVNACHLSCSALLQDNIADAVACAKRVVRDPQGIRAWVAWRNRCQNRDVRQYVQGCGV,64.5,452,464

# Same assay, conditions: Homo sapiens; pH 3.09; Thermal; DSC; glycine 0.05 M; reversible: yes; structure 1LZ1; whole UniProt chain shown
Variant,Tm [°C],unfolding enthalpy (calorimetric) [kJ/mol],unfolding enthalpy (van 't Hoff) [kJ/mol]
MKALIVLGLVLLSVTVQGKVFERCELARTLKRLGMDGYRGISLANWMCLAKWESQYNTRATNYNAGDRSTDYGIFQINSRYWCNDGKTPGAVNACHLSCSALLQDNIADAVACAKRVVRDPQGIRAWVAWRNRCQNRDVRQYVQGCGV,70.1,473,494

# Same assay, conditions: Homo sapiens; pH 3.25; Thermal; DSC; glycine 0.05 M; reversible: yes; structure 1LZ1; whole UniProt chain shown
Variant,Tm [°C],unfolding enthalpy (calorimetric) [kJ/mol],unfolding enthalpy (van 't Hoff) [kJ/mol]
MKALIVLGLVLLSVTVQGKVFERCELARTLKRLGMDGYRGISLANWMCLAKWLSGYNTRATNYNAGDRSTDYGIFQINSRYWCNDGKTPGAVNACHLSCSALLQDNIADAVACAKRVVRDPQGIRAWVAWRNRCQNRDVRQYVQGCGV,70.8,439,460
